Measured values as given in article PMC4569848.

Tests used:
β-arrestin-1-R7-F2Y = β-arrestin-1-R7-F2Y (UniProt P17870); test: 19F-NMR
β-arrestin-1–Y63-F2Y = β-arrestin-1–Y63-F2Y (UniProt P17870); test: 19F-NMR
Chain of β-arrestin-1–Y63-F2Y (P17870 whole entry, stated change not applied): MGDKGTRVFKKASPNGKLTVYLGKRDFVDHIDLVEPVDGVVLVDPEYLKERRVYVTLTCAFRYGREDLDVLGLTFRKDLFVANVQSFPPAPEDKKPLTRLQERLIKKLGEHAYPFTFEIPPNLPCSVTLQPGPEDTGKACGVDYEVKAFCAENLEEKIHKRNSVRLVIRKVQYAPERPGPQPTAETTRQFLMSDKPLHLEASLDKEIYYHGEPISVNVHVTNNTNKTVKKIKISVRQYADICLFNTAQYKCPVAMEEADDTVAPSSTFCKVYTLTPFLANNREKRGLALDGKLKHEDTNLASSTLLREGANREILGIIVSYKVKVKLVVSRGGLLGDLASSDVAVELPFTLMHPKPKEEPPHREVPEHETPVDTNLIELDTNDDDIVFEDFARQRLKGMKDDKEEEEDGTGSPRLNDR

Chain of β-arrestin-1-R7-F2Y (P17870 other isoform, or with tags, fused parts or gaps R7-F2Y): as the sequence (P17870 whole entry, stated change not applied) above, with R7Y counted along it

Row | Substance | other: 19F chemical shift change (β-arrestin-1-R7-F2Y) | other: 19F chemical shift change (β-arrestin-1–Y63-F2Y)
1 | GRK6pp (GRK6-phosphorylated β2AR C-tail) E369A | 0.01 p.p.m. | 0.89 p.p.m.
2 | GRK6pp (GRK6-phosphorylated β2AR C-tail) pS355S | 0.09 p.p.m. | 0.02 p.p.m.
